± gives the standard deviation of the averaged measurements.
test system: Saccharomyces cerevisiae; experiment: protein stability index of tFT-peptide fusion (C-terminal peptide) (PSI (0-1 scale)); higher = more stable (slower turnover); settings: genetic background: wild type; temperature: 30 C
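Further: PSI is a weighted mean of sequencing reads over stability bins, variants kept only with over 10 reads, mCherry proximal and sfGFP distal, peptide attached via GGGS linker.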

Sequence | protein stability index
PGGSVYKPLATA | 0.644 ± 0.071
PGLAGGASQEGR | 0.58 ± 0.085
PGLLPTPSSPVP | 0.821 ± 0.032
PGLRRHPPPPPP | 0.739 ± 0.071
PGMTILETTIMD | 0.691 ± 0.015
PGPSVRSWHPMD | 0.69 ± 0.082
PGRGRQGSGIGM | 0.671 ± 0.062
PGRSRGGPPERR | 0.6386 ± 0.0035
PGTEVSDTLEVL | 0.6894 ± 0.0045
PGTRNATPRRQP | 0.707 ± 0.04
PGVIFRLPSCFV | 0.652 ± 0.061
PHAHTAPPPVPP | 0.601 ± 0.017
PHAPTAGPFPLP | 0.783 ± 0.021
PHILMSFGSPLS | 0.729 ± 0.018
PHLLRRPPTQRH | 0.633 ± 0.049
PHLSPPGLPTTP | 0.685 ± 0.055
PHNSARSLPLHF | 0.717 ± 0.052
PHPCPTPPPLAP | 0.644 ± 0.043
PHPLPLPPPVAP | 0.711 ± 0.031
PHPNHRGPKGAN | 0.686 ± 0.032
PHPPCRPYPAGS | 0.701 ± 0.031
PHPPPLTQTPHD | 0.704 ± 0.014
PHPPPPPPALTP | 0.704 ± 0.037

Sequence | protein stability index
PHPSPSSPPLLP | 0.657 ± 0.043
PHPVPPRLPFPS | 0.747 ± 0.038
PHQPRDGSFHGT | 0.653 ± 0.011
PHRLPPLPNPLH | 0.693 ± 0.082
PHRSLHTPTLCS | 0.686 ± 0.16
PHSLLPSSAPRN | 0.696 ± 0.024
PHTHHLPPPNCP | 0.679 ± 0.04
PHYLPHAPHGAL | 0.704 ± 0.037
PIGAFLSFWGQW | 0.828 ± 0.087
PIPPESLHPDHN | 0.83 ± 0.038
PISCVLGFAFPS | 0.708 ± 0.1
PISKLCLTSYEY | 0.697 ± 0.021
PITLRRRSRPPT | 0.692 ± 0.052
PKEQTHKKQHNI | 0.56 ± 0.039
PKNPRSTNGQLS | 0.67 ± 0.055
PKPDFPGRHLSR | 0.654 ± 0.093
PKSFLRRLRGWA | 0.701 ± 0.07
PLAHYRPLPPRL | 0.787 ± 0.063
PLAMRVALFSPP | 0.651 ± 0.0089
PLAPSPPLPAFC | 0.693 ± 0.02
PLAPSTPPNLSN | 0.643 ± 0.073
PLASPYRLCPVP | 0.624 ± 0.044
PLCPPPLPTPPP | 0.5849 ± 0.0028

Sequence | protein stability index
PLCPPPPVASFV | 0.64 ± 0.013
PLDLPPLPLPPP | 0.763 ± 0.15
PLFRHAPPSTLH | 0.739 ± 0.014
PLFSLRPSIPFS | 0.72 ± 0.033
PLGCFQQDVYEK | 0.733 ± 0.089
PLHLPPFRPSPR | 0.676 ± 0.12
PLHPPLSGPLPP | 0.723 ± 0.021
PLHPPSLPPSRS | 0.65 ± 0.059
PLLAPVPLTLTP | 0.722 ± 0.022
PLLGPFTPSSLL | 0.737 ± 0.0088
PLLHSARSSPFR | 0.699 ± 0.049
PLLLLFLSLFRR | 0.63 ± 0.023
PLLPLRSPPPLV | 0.637 ± 0.046
PLLPPLPVSPLP | 0.704 ± 0.038
PLLPRLNIPREF | 0.658 ± 0.056
PLLSCLFLLFFL | 0.526 ± 0.0065
PLLSLGCFPFCL | 0.724 ± 0.082
PLLVLPGPLLTP | 0.668 ± 0.097
PLPFSPPFPPSS | 0.732 ± 0.055
PLPFWPPPPRRP | 0.674 ± 0.066
PLPIGLRHVKSE | 0.696 ± 0.018
PLPIPPRRPNSP | 0.65 ± 0.091
PLPLLPTNPSPP | 0.636 ± 0.0096

Sequence | protein stability index
PLPLPAPPPPSP | 0.663 ± 0.01
PLPPFPPSPPFT | 0.684 ± 0.036
PLPPLPPPPPPP | 0.639 ± 0.051
PLPPPAIPRLCA | 0.636 ± 0.029
PLPPPLLPRTRL | 0.694 ± 0.11
PLPPPPLAPPPP | 0.687 ± 0.014
PLPPPPPARLVP | 0.649 ± 0.048
PLPPPPPPPHSP | 0.738 ± 0.05
PLPPPPPPPPRL | 0.678 ± 0.0073
PLPPPPPPPRSP | 0.718 ± 0.077
PLPPPPPPPSTP | 0.784 ± 0.0098
PLPPPPRLRCSS | 0.649 ± 0.069
PLPPPPTPPSLS | 0.716 ± 0.046
PLPPPRFPPPRL | 0.68 ± 0.12
PLPPPRPPPSPP | 0.603 ± 0.071
PLPPPRSSPVSS | 0.658 ± 0.04
PLPPRLPPPPPS | 0.72 ± 0.048
PLPPSRLSPSPP | 0.7 ± 0.0036
PLPPTPSLDPSS | 0.6992 ± 0.0033
PLPPVVSFALSR | 0.661 ± 0.061
PLPRPPPPANSP | 0.714 ± 0.063
PLPRSPLHPSVP | 0.74 ± 0.03
PLPSLPPSLAPW | 0.692 ± 0.078

Sequence | protein stability index
PLPSPASPSPPP | 0.67 ± 0.12
PLPSPLLPRSVL | 0.705 ± 0.045
PLPSPSLLLHCP | 0.592 ± 0.0013
PLPTPHPHKPYQ | 0.771 ± 0.025
PLPVRPGQHRIL | 0.6918 ± 0.0024
PLRKGVHTHNNK | 0.632 ± 0.053
PLRLLSTPSPLS | 0.755 ± 0.049
PLRLPVPLPSPP | 0.6571 ± 0.0062
PLRPGILLNKLP | 0.646 ± 0.046
PLRPPPPPLAPP | 0.697 ± 0.035
PLRPPPRPRQTH | 0.671 ± 0.056
PLRPPPSPLSPR | 0.76 ± 0.055
PLRPSVSALPPF | 0.683 ± 0.018
PLRQRCIYDVPI | 0.7688 ± 0.0039
PLRSLRFYTTLS | 0.649 ± 0.018
PLRVATTLGYPL | 0.649 ± 0.081
PLRVDLTHQQWS | 0.574 ± 0.11
PLRYPQLTLPPP | 0.6381 ± 0.0037
PLSDRGGRFPML | 0.7 ± 0.053
PLSLIAFAISPC | 0.637 ± 0.015
PLSPFLPPPVPL | 0.703 ± 0.13
PLSPFLRFLSSP | 0.605 ± 0.072
PLSPPLPPAIPS | 0.698 ± 0.063

Sequence | protein stability index
PLSPPPRPPPSP | 0.654 ± 0.066
PLSPPPRRPPSP | 0.655 ± 0.022
PLSSILSPSSPA | 0.729 ± 0.052
PLTFRYQSHSAH | 0.702 ± 0.11
PLTNPPRSRKSS | 0.783 ± 0.12
PLTTTPPTRHTP | 0.6978 ± 0.004
PLWHCFRFLSGS | 0.607 ± 0.014
PMPPPRRPTALC | 0.716 ± 0.038
PNPPPPPPPSSP | 0.742 ± 0.058
PNRPPLQFFPPP | 0.697 ± 0.05
PNSTIVATKGVT | 0.648 ± 0.076
PPAASSFRLSSC | 0.751 ± 0.1
PPALPPTGHPPF | 0.709 ± 0.013
PPAPFAICRTRS | 0.654 ± 0.018
PPAPPAPPPSVG | 0.708 ± 0.03
PPAPPPPPPSPP | 0.659 ± 0.029
PPAPPPPSTPHP | 0.672 ± 0.13
PPAPPPVSPPRP | 0.7075 ± 0.0027
PPAPPSQPINAT | 0.709 ± 0.053
PPAPSPPLPSLA | 0.694 ± 0.037
PPAPTHSAPSQI | 0.655 ± 0.07
PPARTPPGLPRP | 0.723 ± 0.29
PPASPPAPRPPV | 0.759 ± 0.018

Sequence | protein stability index
PPATTPASTNLQ | 0.7 ± 0.017
PPAVDSSPRSRD | 0.7148 ± 0.0019
PPCAPFSPPALP | 0.659 ± 0.05
PPCCFPRSPSPS | 0.714 ± 0.049
PPCPAPLSPPLG | 0.676 ± 0.049
PPCPSPPLFLPS | 0.687 ± 0.063
PPCRREEQTDNH | 0.682 ± 0.059
PPCTVKAQRAYD | 0.694 ± 0.035
PPDALTHPTPPQ | 0.703 ± 0.013
PPFFLLLPPTIF | 0.67 ± 0.063
PPFPKFPRPRLH | 0.738 ± 0.04
PPFSHLPYLLPP | 0.685 ± 0.015
PPFTARPATLAR | 0.565 ± 0.017
PPFVPGEVRRTV | 0.6867 ± 0.0036
PPGLRSYACCRN | 0.7615 ± 0.0046
PPGNPPPRRLTS | 0.695 ± 0.053
PPGPLPPLSSTP | 0.661 ± 0.034
PPGPVVPPPPPD | 0.664 ± 0.027
PPHFPPRPRPGP | 0.685 ± 0.015
PPHHSLSPPLPP | 0.6607 ± 0.0014
PPHPPAPHPSPT | 0.733 ± 0.069
PPHPPNPLPTPQ | 0.829 ± 0.17

From the supplement of paper PMC10724198
